In PMC11526878:

Biological target: ryanodine receptor 1 (RyR1) purified from rabbit skeletal muscle (rabbit) (UniProt P11716)
Assay: cryo-EM structure

Chain of ryanodine receptor 1 (RyR1) purified from rabbit skeletal muscle, P11716 1-5037 (P11716 whole entry): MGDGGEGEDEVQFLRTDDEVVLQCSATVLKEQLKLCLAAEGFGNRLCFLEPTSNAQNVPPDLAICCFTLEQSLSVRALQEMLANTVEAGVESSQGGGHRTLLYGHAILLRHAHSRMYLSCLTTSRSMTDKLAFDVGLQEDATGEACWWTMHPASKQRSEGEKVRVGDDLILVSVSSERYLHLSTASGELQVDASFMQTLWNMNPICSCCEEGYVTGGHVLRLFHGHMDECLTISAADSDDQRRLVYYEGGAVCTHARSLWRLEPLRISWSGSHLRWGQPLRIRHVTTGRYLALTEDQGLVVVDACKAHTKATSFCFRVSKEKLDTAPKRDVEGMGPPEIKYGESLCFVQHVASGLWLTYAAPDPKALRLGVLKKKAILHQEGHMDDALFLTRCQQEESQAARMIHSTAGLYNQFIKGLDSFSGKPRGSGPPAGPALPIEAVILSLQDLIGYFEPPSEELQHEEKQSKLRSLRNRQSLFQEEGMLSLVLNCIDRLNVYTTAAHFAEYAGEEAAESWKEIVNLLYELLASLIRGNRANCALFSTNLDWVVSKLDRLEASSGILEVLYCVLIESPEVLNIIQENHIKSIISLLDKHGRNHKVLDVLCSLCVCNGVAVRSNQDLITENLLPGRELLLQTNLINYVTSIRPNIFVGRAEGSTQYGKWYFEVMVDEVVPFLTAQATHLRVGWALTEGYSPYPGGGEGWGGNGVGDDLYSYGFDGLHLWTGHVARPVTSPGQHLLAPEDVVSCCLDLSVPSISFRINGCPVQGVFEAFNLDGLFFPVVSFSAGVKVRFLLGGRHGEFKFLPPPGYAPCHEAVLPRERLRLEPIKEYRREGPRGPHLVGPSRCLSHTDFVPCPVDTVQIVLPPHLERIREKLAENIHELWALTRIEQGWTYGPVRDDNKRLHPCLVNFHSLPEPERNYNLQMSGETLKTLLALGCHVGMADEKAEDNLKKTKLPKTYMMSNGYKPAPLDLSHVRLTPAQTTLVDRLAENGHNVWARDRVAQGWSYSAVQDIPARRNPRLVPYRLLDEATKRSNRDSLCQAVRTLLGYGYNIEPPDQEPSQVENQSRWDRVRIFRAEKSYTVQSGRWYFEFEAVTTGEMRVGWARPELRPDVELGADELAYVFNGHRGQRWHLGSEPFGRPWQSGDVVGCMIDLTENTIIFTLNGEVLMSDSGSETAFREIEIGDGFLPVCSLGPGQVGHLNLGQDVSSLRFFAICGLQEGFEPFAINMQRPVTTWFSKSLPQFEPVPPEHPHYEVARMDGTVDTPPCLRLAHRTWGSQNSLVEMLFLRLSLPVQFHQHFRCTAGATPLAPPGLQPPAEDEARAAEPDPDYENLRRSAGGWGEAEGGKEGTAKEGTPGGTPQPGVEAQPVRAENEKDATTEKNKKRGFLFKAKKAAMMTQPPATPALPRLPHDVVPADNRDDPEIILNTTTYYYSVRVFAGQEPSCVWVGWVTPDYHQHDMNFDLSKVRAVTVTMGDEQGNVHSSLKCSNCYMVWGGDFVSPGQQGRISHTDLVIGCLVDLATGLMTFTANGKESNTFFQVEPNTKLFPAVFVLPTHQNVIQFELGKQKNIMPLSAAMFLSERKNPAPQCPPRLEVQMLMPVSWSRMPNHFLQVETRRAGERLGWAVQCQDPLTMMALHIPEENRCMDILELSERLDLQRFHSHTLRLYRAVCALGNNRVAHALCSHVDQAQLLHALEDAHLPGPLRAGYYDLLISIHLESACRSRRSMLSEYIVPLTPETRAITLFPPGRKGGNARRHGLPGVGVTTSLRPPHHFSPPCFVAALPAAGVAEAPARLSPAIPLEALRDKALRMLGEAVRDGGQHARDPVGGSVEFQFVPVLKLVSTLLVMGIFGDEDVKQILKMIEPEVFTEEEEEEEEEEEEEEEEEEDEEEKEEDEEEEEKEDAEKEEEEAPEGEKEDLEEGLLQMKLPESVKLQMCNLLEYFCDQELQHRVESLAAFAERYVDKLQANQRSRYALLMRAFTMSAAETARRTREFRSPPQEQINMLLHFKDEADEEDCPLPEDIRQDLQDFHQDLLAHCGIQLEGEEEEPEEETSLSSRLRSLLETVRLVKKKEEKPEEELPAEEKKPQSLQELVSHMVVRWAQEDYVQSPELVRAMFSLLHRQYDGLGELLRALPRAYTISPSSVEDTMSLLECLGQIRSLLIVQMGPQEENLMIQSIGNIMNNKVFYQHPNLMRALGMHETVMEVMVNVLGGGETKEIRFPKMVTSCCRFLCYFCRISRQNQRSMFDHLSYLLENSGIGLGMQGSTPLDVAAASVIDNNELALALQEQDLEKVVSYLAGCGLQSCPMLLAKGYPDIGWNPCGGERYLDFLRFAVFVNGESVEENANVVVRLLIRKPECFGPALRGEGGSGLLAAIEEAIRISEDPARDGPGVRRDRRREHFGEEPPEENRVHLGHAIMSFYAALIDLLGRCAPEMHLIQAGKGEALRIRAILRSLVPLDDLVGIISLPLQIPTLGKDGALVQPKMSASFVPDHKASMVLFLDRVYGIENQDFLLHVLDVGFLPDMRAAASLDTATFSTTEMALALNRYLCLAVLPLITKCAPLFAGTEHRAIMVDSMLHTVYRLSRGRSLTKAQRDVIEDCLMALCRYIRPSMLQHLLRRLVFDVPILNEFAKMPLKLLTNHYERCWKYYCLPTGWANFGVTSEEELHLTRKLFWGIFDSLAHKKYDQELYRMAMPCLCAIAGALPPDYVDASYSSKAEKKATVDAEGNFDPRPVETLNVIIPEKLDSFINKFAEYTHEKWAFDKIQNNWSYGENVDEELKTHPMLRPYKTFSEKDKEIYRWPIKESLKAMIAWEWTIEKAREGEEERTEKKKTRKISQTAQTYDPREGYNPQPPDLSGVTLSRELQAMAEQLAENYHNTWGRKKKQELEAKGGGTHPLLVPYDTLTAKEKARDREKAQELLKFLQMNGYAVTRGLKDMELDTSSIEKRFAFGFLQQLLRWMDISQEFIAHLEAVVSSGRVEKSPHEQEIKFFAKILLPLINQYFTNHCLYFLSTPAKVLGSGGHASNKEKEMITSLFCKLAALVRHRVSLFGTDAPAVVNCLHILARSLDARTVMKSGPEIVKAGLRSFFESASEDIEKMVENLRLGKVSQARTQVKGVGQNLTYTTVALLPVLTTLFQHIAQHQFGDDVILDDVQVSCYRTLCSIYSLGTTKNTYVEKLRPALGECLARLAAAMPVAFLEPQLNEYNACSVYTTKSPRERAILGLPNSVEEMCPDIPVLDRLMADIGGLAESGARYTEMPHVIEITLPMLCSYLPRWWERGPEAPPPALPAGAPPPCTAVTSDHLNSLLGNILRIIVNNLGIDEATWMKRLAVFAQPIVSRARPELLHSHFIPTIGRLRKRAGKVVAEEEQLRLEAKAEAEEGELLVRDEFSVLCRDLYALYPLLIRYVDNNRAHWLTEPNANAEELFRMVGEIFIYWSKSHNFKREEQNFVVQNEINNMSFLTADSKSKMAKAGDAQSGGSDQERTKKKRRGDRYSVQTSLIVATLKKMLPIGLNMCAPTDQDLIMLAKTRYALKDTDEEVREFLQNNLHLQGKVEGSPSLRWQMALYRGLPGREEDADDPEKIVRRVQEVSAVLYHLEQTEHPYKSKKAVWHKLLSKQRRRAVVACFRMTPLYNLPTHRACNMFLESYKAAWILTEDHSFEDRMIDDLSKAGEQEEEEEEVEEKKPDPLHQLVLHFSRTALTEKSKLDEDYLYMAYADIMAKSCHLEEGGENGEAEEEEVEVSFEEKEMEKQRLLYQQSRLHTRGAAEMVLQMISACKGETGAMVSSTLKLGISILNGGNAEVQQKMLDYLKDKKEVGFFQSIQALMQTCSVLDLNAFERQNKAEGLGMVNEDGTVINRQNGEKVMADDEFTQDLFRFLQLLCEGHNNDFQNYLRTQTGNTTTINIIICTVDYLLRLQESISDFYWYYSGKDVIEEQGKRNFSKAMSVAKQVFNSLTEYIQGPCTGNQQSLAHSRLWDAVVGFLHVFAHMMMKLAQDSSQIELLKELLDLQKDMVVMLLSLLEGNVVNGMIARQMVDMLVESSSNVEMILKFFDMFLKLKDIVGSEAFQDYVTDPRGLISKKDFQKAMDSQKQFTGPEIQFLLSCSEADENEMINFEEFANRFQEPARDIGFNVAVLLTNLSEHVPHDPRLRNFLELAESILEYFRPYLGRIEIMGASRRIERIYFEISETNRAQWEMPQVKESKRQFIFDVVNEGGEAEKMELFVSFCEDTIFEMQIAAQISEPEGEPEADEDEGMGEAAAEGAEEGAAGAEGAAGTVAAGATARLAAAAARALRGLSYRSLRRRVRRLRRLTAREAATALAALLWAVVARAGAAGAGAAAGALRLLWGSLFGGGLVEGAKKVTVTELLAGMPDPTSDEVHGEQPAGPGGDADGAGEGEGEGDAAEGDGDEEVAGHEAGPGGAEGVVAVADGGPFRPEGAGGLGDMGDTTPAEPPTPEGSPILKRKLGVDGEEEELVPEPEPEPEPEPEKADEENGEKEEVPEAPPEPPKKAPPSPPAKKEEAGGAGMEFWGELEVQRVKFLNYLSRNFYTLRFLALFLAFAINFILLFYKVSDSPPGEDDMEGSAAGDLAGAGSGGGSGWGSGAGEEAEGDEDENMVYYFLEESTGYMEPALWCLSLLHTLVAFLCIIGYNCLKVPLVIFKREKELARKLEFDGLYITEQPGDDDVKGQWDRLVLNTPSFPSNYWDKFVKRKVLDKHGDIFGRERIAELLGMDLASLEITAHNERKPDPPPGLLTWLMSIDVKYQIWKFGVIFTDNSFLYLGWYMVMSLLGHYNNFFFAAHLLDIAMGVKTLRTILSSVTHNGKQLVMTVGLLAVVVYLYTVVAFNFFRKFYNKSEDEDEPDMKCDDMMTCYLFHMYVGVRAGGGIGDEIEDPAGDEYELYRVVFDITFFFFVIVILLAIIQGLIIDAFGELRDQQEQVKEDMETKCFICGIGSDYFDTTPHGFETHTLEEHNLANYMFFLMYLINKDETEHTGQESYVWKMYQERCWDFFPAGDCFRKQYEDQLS

## ryanodine receptor 1 (RyR1) purified from rabbit skeletal muscle, P11716 1-5037
  stoichiometry N: 4
